Assay results published in PMC9170038, “Crowdsourced RNA design discovers diverse, reversible, efficient, self-contained molecular switches”.

B1: Eterna 6069320 (Exclusion 4) (ssRNA)
RNA: GGGUUGUGAGGAUAUUAGUUGUACGUCAAUAGACGUAUGGGUGAGAAGGCACAUGAGGAUCACCCAUGUUCCUG
B2: Eterna 6402815 (Same State NG 2) (ssRNA)
RNA: ACCUCGUACACAGGAUAUGAUUACUUGCAGCCUGCGUUGACAUGAGGAUCACCCAUGUGGACUGAUCAGAAGGGUGAACGGAAG
B3: Eterna 6446347 (Same State NG 2) (ssRNA)
RNA: GGGUACAUCGGAGGAUAUCAUGUAAAUACAUGAGGAUCACCCAUGUCGGUGGAGACAUCGGAGAUUGAGAAGGCCGAUGUACCG
B4: Eterna 6075609 (Exclusion 3) (ssRNA)
RNA: CUGAGUUAAGGAUAUACAUGAGGAUCACCCAUGUAAAGUAGCUUGCGUACAGGCAGAUGUAGAAGGUAAUUCGG
B5: Eterna 7644049 (Same State - Tryptophan A) (ssRNA)
RNA: ACAUGAGGAUCACCCAUGUCAUGAGGUUCACGAGGACCGGUACGGCCGCCACUCGACAUGAGGGUCACCCGUGAACGGAACACCC
B6: Eterna 7744734 (Exclusion - Tryptophan A) (ssRNA)
RNA: CGUGAAUGUCGUCAGUCAUCGGUCCAUGCACGAGGACCGGUACGGCCGCCACUCGAGCGUGGCAGUGAUGUUGCCAGCGCACUAA
B7: Eterna 6122145 (Exclusion NG 2) (ssRNA)
RNA: AAAUUUAACGAAGGAUAUGCUGACAUGAGGAUCACCCAUGUGUGCUUUGUGUUGCUGAAAUGGGAGCAGAAGGUCGUAUACAUA
B8: Eterna 7740311 (Same State - Theophylline A) (ssRNA)
RNA: AAAAUAAGCCAGUGAUGUUGGUAUACAGAUACCAGCGACGAAAGUCGCCCUUGGCAGCUGUGGACGUACAAAAUAAGUACGUCCU
B9: Eterna 13277 (Sensor for hsa-mir-208a) (ssRNA)
RNA: AGUUGUGGGAAACUAUAGCAGACGCUCGUACAUGAGGAUCACCCAUGUCUUGUAGGAGCUGUUUGCUCGUUUUAUGG
B10: Eterna 6430193 (Small Loop Exclusion NG 3) (ssRNA)
RNA: GUCGAAACCAUACUGGUCGACGGUCAGGAUAUACAUGAGGAUCACCCAUGUGCUAUUGAUACUAUGUAGAAGGGACCCACCGCA
B11: Eterna 7750603 (Exclusion - Arginine A) (ssRNA)
RNA: GGCCGCAAGGCGAGCGCUCCCACUCCGGAAGGAGCGCCCGUAAGGGCAGGUAGGUCGCCGGAGUGAUGUUCCGGUGGAGGGCUCG
B12: Eterna 7740449 (Exclusion - Theophylline A) (ssRNA)
RNA: AUGUUUUAUAAACUCAUGGUUUCGACAGAUACCAGCUUCGAGAGGAGCCCUUGGCAGCUGCAUGAGUGAUGUUCAUGUACGAAGA
B13: Eterna 15090 (Exclusion 6) (ssRNA)
RNA: AAAUGGGCGUAGGAUAUGAGAUGGUCUAGCAGCUCAGAAGGACGCACAUGAGGAUCACCCAUGUGAUCGGACUA
B14: Eterna 7763203 (Exclusion - FMN B) (ssRNA)
RNA: AAAUAACAGGCAGGAUAUGCUUAGUAAUAAGGCCAUAUAUACGUAUAGAGUGAUGUUUUGUACAAAGCAGAAGGGCUAAAUCCAU
B15: Eterna 6461246 (Same State NG 1) (ssRNA)
RNA: GUUUUCGCAUGAGGAUAUGCUCGCAUUUUAAGAGCAGAAGGUAUGUCUUUAGACAUGAGGAUCACCCAUGUAUUUAUCAUUGAA
B16: Eterna 6455789 (Same State NG 2) (ssRNA)
RNA: UUGGACGUCGUAGGAUAUGUAGGAUAUUCCUACAUGAGGAUCACCCAUGUUGACAUGGAAGAAGGACAGAAGUACGAUGUCCAU
B17: Eterna 10695 (Exclusion 1) (ssRNA)
RNA: AAUUCACAUGAGGAUCACCCAUGUCAGGAUAUGGUGACGCGGGUUUCGGUGCGUGUUGCCAGAAGGGACGGCUG
B18: Eterna 12069 (Sensor v3, turn-off variant 1) (ssRNA)
RNA: UGUUGUUGUUUCCGUUCUUACAUGAGGAUCACCCAUGUUUCUUGUCGUGCUCGCGUUGCUCGUCAGACUACCUGUUG
B19: Eterna 6122649 (Exclusion NG 2) (ssRNA)
RNA: UUAUCUUGUCAAGGAUAUGUUGUAUUGAUCUGAAAACAUGAGGAUCACCCAUGUAUACGGUGGGAACAGAAGGUGAAUGUAGAA
B20: Eterna 8603 (Same State 1) (ssRNA)
RNA: AUAAAACAUGAGGAUCACCCAUGUCAACAAAGUCGAGGAUAUGGGCAAAUAAAAUAAGAACCAGAAGGCGUAUAAU
B21: Eterna 6458058 (Inverted Same State NG 2) (ssRNA)
RNA: AAUGGGCAGCAGAAGGCAUGUCUACGGACAUGAGGAUCACCCAUGUAGUAAAGCCGAAAGGCGCAUGAGGAUAUGCUGCCCUAA
B22: Eterna 6146814 (Same State NG 1) (ssRNA)
RNA: GGUGUCGCAUGAGGAUAUGGUCAGCUUUGCUGACCAGAAGGCAUGUCAAUAGACAUGAGGAUCACCCAUGUAGUAAAGACACCA
B23: Eterna 7717543 (Exclusion - Theophylline B) (ssRNA)
RNA: CCAUUCAUUUACGAUACCAGUCUAAUAUAUUUAAUCAAAACCCUCGCCGAGUGAUGUUCGGACCCUUGGCAGCGUCUGCGACAGG
B24: Eterna 6455078 (Same State NG 2) (ssRNA)
RNA: UGGUACUAGGGAGGAUAUGGGAAGAUACAUGAGGAUCACCCAUGUUUAAGAAUGCCGAGAGGGAACUAGAAGGCCCUAGUACCU
B25: Eterna 7618605 (Same State - Theophylline A) (ssRNA)
RNA: UGUAACAUGAGGAUCACCCAUGUGAGUGAUACCAGAUUAGUAUUAGUCCCUUGGCAGCACAUUGGGCGAGUGUAUAGUCUAUGCG
B26: Eterna 7741560 (Exclusion - FMN A) (ssRNA)
RNA: UCCUAGGCUCGAAAGAGCCUAGGAUUGACUCAGGAUAUCCGGAAACGGAGAAGGGAGUCACUAGUGAUGUUAGGGAUUCCCUAUU
B27: Eterna 5989868 (Exclusion 3) (ssRNA)
RNA: GUAUCACGAGGAUAUACAUGAGGAUCACCCAUGUAGAAGCCAUGUGGUGCUCAAGUAUGUAGAAGGCGUGCUCC
B28: Eterna 13730 (Sensor v3, turn-off variant 1) (ssRNA)
RNA: CCGAGGAAGCGGUCCUAUGACAUGAGGAUCACCCAUGUACCUCGCUACGAGCUUUUUGCUCGUCUUAUAAUUCUCGG
B29: Eterna 11543 (Sensor v3, turn-off variant 1) (ssRNA)
RNA: AAAGAAGAGAGAAAAUAACACAUGAGGAUCACCCAUGUGAGAAGUUGAGGGUGAUACAGGCUUUAUGCUCGUCUUAU
B30: Eterna 7613251 (Exclusion - Tryptophan A) (ssRNA)
RNA: CGGACAUGAGGAUCACCCAUGUCGUCGACGCGAGGACCGGUACGGCCGCCACUCGCAUGCCAAUGAGCGCAUGCGGCCUGGGUAU
B31: Eterna 6461493 (Inverted Same State NG 1) (ssRNA)
RNA: GUGCUUUGGGAGAAGGCCGUAUGCAAAGCAUACGGAGGAUAUUCAUACCGGAAACGGACAUGAGGAUCACCCAUGUGGCACAAA
B32: Eterna 6045632 (Brourd's mod of Exclusion 4) (ssRNA)
RNA: CGGGCUGCUGUGAGGAUAUGCCUGUGGGUGCGUGGGUAGAAGGCACAUGAGGAUCACCCAUGUCCUGCAGCUCG
B33: Eterna 7689684 (Same State - Theophylline A) (ssRNA)
RNA: UGGAGUUGACGAAAAGUCAACUCCUGAGAUACCAGUGACGAAAGUCACCCUUGGCAGCUCACUGCCAGUGAUGUUGGAAAUAAAA
B34: Eterna 1618 (Same State - Theophylline A) (ssRNA)
RNA: GAUUGAGUGAUGUUCAAUUAGUAUCUAGAUACCAGAAUGUCUACCUUCCCUUGGCAGCUACUGACGGUGAUCAUUUCGCGCGCAG
B35: Eterna 1184 (Exclusion - Theophylline B) (ssRNA)
RNA: AACACCCGCUAUGAUACCAGUGAAGUGAUGUUUUACUCCGGGCGUAAGACAAAGGUCAGCCACCCUUGGCAGCAUAUCCGCGUAU

Tests used:
Conditions in all cases: chain copies: 2; label: tethered by stalled RNA polymerase
[1] = target: T1, MS2 coat protein, dlFG mutant (Escherichia phage MS2, UniProt P03612, del68-81insG); test: 4 mM Mg2+; no ligand; RNA-MaP array; 100 mM Tris-HCl pH 7.5, 80 mM KCl, 4 mM MgCl2, 0.1 mg/mL BSA, 1 mM DTT, 0.01 mg/mL yeast tRNA, 0.01% Tween-20; protein 1.5 nM to 3 uM; 37 C (Table S3)
[2] = target: T1, MS2 coat protein, dlFG mutant; test: 4 mM Mg2+; L-tryptophan 2.4 mM; RNA-MaP array; 100 mM Tris-HCl pH 7.5, 80 mM KCl, 4 mM MgCl2, 0.1 mg/mL BSA, 1 mM DTT, 0.01 mg/mL yeast tRNA, 0.01% Tween-20; protein 1.5 nM to 3 uM; 37 C (Table S3)
[3] = target: T1, MS2 coat protein, dlFG mutant; test: 4 mM Mg2+; FMN 200 uM; RNA-MaP array; 100 mM Tris-HCl pH 7.5, 80 mM KCl, 4 mM MgCl2, 0.1 mg/mL BSA, 1 mM DTT, 0.01 mg/mL yeast tRNA, 0.01% Tween-20; protein 1.5 nM to 3 uM; 37 C (Table S3)
[4] = target: T1, MS2 coat protein, dlFG mutant; test: 4 mM Mg2+; miR-208a RNA 100 nM (AU…UUGU); RNA-MaP array; 100 mM Tris-HCl pH 7.5, 80 mM KCl, 4 mM MgCl2, 0.1 mg/mL BSA, 1 mM DTT, 0.01 mg/mL yeast tRNA, 0.01% Tween-20; protein 1.5 nM to 3 uM; 37 C (Table S3)
[5] = target: T1, MS2 coat protein, dlFG mutant; test: 4 mM Mg2+; theophylline 2 mM; RNA-MaP array; 100 mM Tris-HCl pH 7.5, 80 mM KCl, 4 mM MgCl2, 0.1 mg/mL BSA, 1 mM DTT, 0.01 mg/mL yeast tRNA, 0.01% Tween-20; protein 1.5 nM to 3 uM; 37 C (Table S3)

| Binder | Kd [1] [µM] | other results |
| --- | --- | --- |
| B1 | 0.107 |  |
| B2 | 0.571 |  |
| B3 | 0.271 |  |
| UUUGCAGGGCAGUGAUGUUGCCCUGCUUU (ssRNA) [Eterna 8 (K4-8bp_control)] | > 3 |  |
| B4 | 0.043 |  |
| B5 |  | Kd [2]: 0.02 µM |
| B6 | > 3 |  |
| B7 | 0.118 |  |
| B8 | > 3 |  |
| B9 | 0.0638 |  |
| B10 |  | Kd [3]: 0.0244 µM |
| B11 | > 3 |  |
| B12 | > 3 |  |
| B13 | 0.0287 |  |
| B14 | > 3 |  |
| B15 | 0.162 |  |
| B16 | 0.127 |  |
| B17 | 0.133 |  |
| B18 |  | Kd [4]: 0.111 µM |

| Binder | Kd [1] [µM] | other results |
| --- | --- | --- |
| B19 | 0.808 |  |
| B20 | 0.53 |  |
| B21 | 0.121 |  |
| B22 | 0.504 |  |
| B23 | > 3 |  |
| B24 | 0.255 |  |
| B25 |  | Kd [5]: 0.109 µM |
| B26 | > 3 |  |
| UUUCUUAUUCUUUAUUGUGGGGUUUU (ssRNA) [Eterna 4 (OligoAControl)] | > 3 |  |
| B27 | 0.0361 |  |
| B28 | 0.0236 |  |
| B29 | 0.203 |  |
| B30 |  | Kd [2]: 0.0228 µM |
| B31 | 1.2 |  |
| B32 | 1.13 |  |
| B33 | > 3 |  |
| B34 | > 3 |  |
| B35 | > 3 |  |
